Reference: PMC11321386 (Blood advances, 2024)

Target: GPVI-Fc dimer (UniProt Q9HCN6)
Assay: ELISA

B1: nanobody 2 (Nb2) (VHH)
VHH: QVQLQESGGGLVQPGGSLRLSCAAAGFTFDYYAIAWFRQAPGKEREGVSCISSSDGTTYYADSVKGRFTISKDNAKNTMYLQMNSLKPEDTAVYYCATSPLYSTNDRCISEDYDYWGQGTQVTVSS
binding result: binds
